{"source": "patent US20230348564A1", "about": "“ANTI-CANCER PROTEINS” (UNICHEM LABORATORIES LTD, priority 2020, published 2023)", "key": {"CCR5": {"test_system": "CCR5", "experiment": "SelectScreen Cell-based Pathway Profiling (GeneBLAzer bla reporter)", "design": "species or system Human", "conditions": "0.058 μg/mL-50 μg/mL", "description": "(§1) The mechanism of action of the recombinant lectin having the amino acid sequence of SEQ ID NO.2 is studied by determining its effect on the modulation of key signaling pathways involved in the pathogenesis of cancer. The study was performed using SelectScreen® Cell-based Pathway Profiling Services at Life Technologies, USA. Modulatory effect of Lectin having the amino acid sequence of SEQ ID NO. 2 on various cell signaling pathways was investigated in cell lines overexpressing specific markers using GeneBLAzer Beta-lactamase (bla) Reporter Technology and Tango platforms. The cell lines tested were MDA-MB-231 (Human Breast cancer), KB (Human Cervical cancer), PA-1 (Human ovarian cancer), PANC-1 (Human pancreatic cancer), HT-29 (Human colorectal cancer), T-24 (Human Bladder cancer)\n(§2) 10 mg of recombinant lectin having the amino acid sequence of SEQ ID NO.2 was dissolved in 200 μL of TBS buffer (25 mM, pH 8.0) to obtain stock solution of 50 mg/mL. The stock solutions were diluted in Serum Free Medium (STM) to achieve final concentrations in cells ranging from 0.00158 μg/mL-50 μg/mL. Cells (32 μL) were diluted in Assay Media to appropriate cell density and were added to the assay plate. Cells were incubated at 37° C./5% CO2 for 24 h. 40 nL of 1000×sample and 4 μL of assay medium was added to the cells in the assay plate and incubated for 30 minutes at 37° C./5% CO2 in a humidified incubator. Then, 4 μL of the 10×EC80 concentration of activator was added to all wells containing sample to bring the final assay volume to 40 μL. The assay plate was incubated for 16 hours at 37° C./5% CO2 in a humidified incubator. Further, 8 μL of the Substrate Loading Solution (LiveBLAzer™—FRET B/G) was added to the assay plate. The assay plate was incubated for 2 hours at room temperature, in the dark. The assay plate was read on a fluorescence plate reader (Tecan Safire2). Fluorescence emission values at 460 nm and 530 nm were obtained using a standard florescence plate reader and % modulation was determined.\n(§3) % Modulation=[(A−B)/A]*100\n(§4) Where, A=Fluorescence reading in Control (untreated cells) B=Fluorescence reading in TI treated cells"}, "IL-4/STAT6": {"test_system": "IL-4/STAT6", "experiment": "SelectScreen Cell-based Pathway Profiling (GeneBLAzer bla reporter)", "design": "species or system Human", "conditions": "0.0158 μg/mL-0.5 μg/mL", "description": "as §1, §2, §3, §4"}, "MAPK/EGFR/Ras/Raf": {"test_system": "MAPK/EGFR/Ras/Raf", "experiment": "SelectScreen Cell-based Pathway Profiling (GeneBLAzer bla reporter)", "design": "species or system Human", "conditions": "0.158 μg/mL-50 μg/mL", "description": "as §1, §2, §3, §4"}, "PI3K/AKT/FOXO3": {"test_system": "PI3K/AKT/FOXO3", "experiment": "SelectScreen Cell-based Pathway Profiling (GeneBLAzer bla reporter)", "design": "species or system Human", "conditions": "0.5 μg/mL-50 μg/mL", "description": "as §1, §2, §3, §4"}, "NF-KB": {"test_system": "NF-KB", "experiment": "SelectScreen Cell-based Pathway Profiling (GeneBLAzer bla reporter)", "design": "species or system Human", "conditions": "0.5 μg/mL-50 μg/mL", "description": "as §1, §2, §3, §4"}, "PKC/Ca2+": {"test_system": "PKC/Ca2+", "experiment": "SelectScreen Cell-based Pathway Profiling (GeneBLAzer bla reporter)", "design": "species or system Human", "description": "as §1, §2, §3, §4"}, "TNF-alpha/JNK": {"test_system": "TNF-alpha/JNK", "experiment": "SelectScreen Cell-based Pathway Profiling (GeneBLAzer bla reporter)", "design": "species or system Human", "conditions": "0.5 μg/mL-50 μg/mL", "description": "as §1, §2, §3, §4"}, "ADBR1": {"test_system": "ADBR1", "experiment": "SelectScreen Cell-based Pathway Profiling (GeneBLAzer bla reporter)", "design": "species or system Human", "conditions": "0.158 μg/mL-50 μg/mL", "description": "as §1, §2, §3, §4"}, "mechanistic biomarkers": {"test_system": "mechanistic biomarkers", "experiment": "modulation of mechanistic biomarkers (summary)", "format": "cell-based", "from_the_text": "The effect of modulation of mechanistic biomarkers by recombinant lectin having the amino acid sequence of SEQ ID NO.2 is summarized as below: • increased levels of HGF, which binds to its receptor C-Met, and then acts on MAPK, • activated ATF-2 which is a tumor suppressor and acts via inducing apoptosis, • increased expression of c-kit, which is receptor for SCF, this acts downstream on MAPK, • increased the expression of JNK and inhibits p53, which activates AFT-2 resulting in apoptosis, • stimulated VEGF, VEGF-A and VEGFR2 expression, which activates Ras-Raf pathway, • inhibited expression of EGF, which binds to EGFR and exerts anticancer effect via Ras-Raf pathway or PKC, • stimulated Her-2, which activates Ras-Raf-MEK1-MAPK-ERK activation, • increased ERK and MEK-1 levels, which activated p90RSK and MMPs expression. ERK also acts via stat-3 and NF-KB, • stimulated GMCSF and IL-6 expression, which act via JAK-STAT pathway and activates NF-KB, • activated IL-4R expression, which connects to JAK-STAT pathway. IL-4R also acts via PI3K-Akt arm, • increased IL-8 levels, which acts via PI-3K-Akt-FOX3 arm. Akt also acts via Stat-3-NF-KB arm, where SEQ ID NO. 2 exerted an increase in Stat-3, • increased expression of Leptin, which binds to its receptor Leptin-R and acts on ERK pathway, • increased levels of cytokines (GMCSF, IL-6 and IL-8) may also interact with the immune system in tumor microenvironment to mount anticancer immunoprotective effect, • activated of TNF-α which connects to JNK pathway, • increased levels of endoglin-1 expression, which is a receptor for TGF-β. […] Binding to Tie-2 regulates PI3k pathway, • activation of Kallikrien-3 & Kallikrien-5 that acts as act a tumor suppressor, via induction of apoptosis, • activation of TRAIL & TRAILR2 causes apoptosis primarily in tumor cells, by binding to certain death receptors, • activation of Osteopontin (PON) which binds to receptors αVβ3 and CD44 and acts via Akt pathway, • inhibited Galectin-1 which either acts via Ras-Raf pathway or PI3k-Akt pathway."}}, "data": [{"molecule": "SEQ ID NO. 2: recombinant lectin; variant of the S. rolfsii lectin amino acid sequence (reported as Rec-2 in WO 2010/095143) (protein, In vitro synthesis) TYKITVRVYQTNPDAFFHPVEKTVWKYANGGTWTITDDQHVLTMGGSGTSGTLRFHADNGESFTATFGVHNYKRWCDIVTNLAADETGMVINQQYYSQKNREEARERQLSNYQVKNAKGRNFQIVYTEAEGNDLHANLIIG", "values": [{"measurement": "Effect (wrt control), inhibition", "setting": "CCR5", "value": "21%-70% inhibition"}, {"measurement": "Effect (wrt control), inhibition", "setting": "CCR5; listed as recombinant lectin", "value": "21%-70%"}, {"measurement": "Effect (wrt control), inhibition", "setting": "IL-4/STAT6", "value": "16%-28% inhibition"}, {"measurement": "Effect (wrt control), inhibition", "setting": "IL-4/STAT6; listed as recombinant lectin", "value": "16% to 28%"}, {"measurement": "Effect (wrt control), inhibition", "setting": "MAPK/EGFR/Ras/Raf", "value": "2%-48% inhibition"}, {"measurement": "Effect (wrt control), inhibition", "setting": "MAPK/EGFR/Ras/Raf; listed as recombinant lectin", "value": "2% to 48%"}, {"measurement": "Effect (wrt control), inhibition", "setting": "PI3K/AKT/FOXO3", "value": "2%-73% inhibition"}, {"measurement": "Effect (wrt control), inhibition", "setting": "PI3K/AKT/FOXO3; listed as recombinant lectin", "value": "2% to 73%"}, {"measurement": "Effect (wrt control), inhibition", "setting": "NF-KB", "value": "3%-13% inhibition"}, {"measurement": "Effect (wrt control), inhibition", "setting": "NF-KB; listed as recombinant lectin", "value": "3% to 13%"}, {"measurement": "effective inhibition", "setting": "PKC/Ca2+; 0.00158 μg/mL to 0.5 μg/mL", "value": "5% to 19%"}, {"measurement": "Effect (wrt control), inhibition", "setting": "PKC/Ca2+; 0.00158 μg/mL-0.158 μg/mL", "value": "5%-19% inhibition"}, {"measurement": "Effect (wrt control), inhibition", "setting": "TNF-alpha/JNK", "value": "12%-45% inhibition"}, {"measurement": "Effect (wrt control), inhibition", "setting": "TNF-alpha/JNK; listed as recombinant lectin", "value": "12% to 45%"}, {"measurement": "Effect (wrt control), inhibition", "setting": "ADBR1", "value": "26%-49% inhibition"}, {"measurement": "Effect (wrt control), inhibition", "setting": "ADBR1; listed as recombinant lectin", "value": "26% to 49%"}, {"measurement": "% Cytotoxicity", "setting": "AGS", "value": 65.3, "unit": "%"}, {"measurement": "ATF-2", "setting": "mechanistic biomarkers", "value": "activated"}, {"measurement": "Angiopoietin-1 & Angiopoietin-2", "setting": "mechanistic biomarkers", "value": "activation"}, {"measurement": "CD40L", "setting": "mechanistic biomarkers", "value": "inhibited"}, {"measurement": "ERK and MEK-1 levels", "setting": "mechanistic biomarkers", "value": "increased"}, {"measurement": "Fol-1 expression", "setting": "mechanistic biomarkers", "value": "increased"}, {"measurement": "GMCSF and IL-6 expression", "setting": "mechanistic biomarkers", "value": "stimulated"}, {"measurement": "Galectin-1", "setting": "mechanistic biomarkers", "value": "inhibited"}, {"measurement": "Galectin-3", "setting": "mechanistic biomarkers", "value": "inhibited"}, {"measurement": "Her-2", "setting": "mechanistic biomarkers", "value": "stimulated"}, {"measurement": "IL-4R expression", "setting": "mechanistic biomarkers", "value": "activated"}, {"measurement": "IL-8 levels", "setting": "mechanistic biomarkers", "value": "increased"}, {"measurement": "Kallikrien-3 & Kallikrien-5", "setting": "mechanistic biomarkers", "value": "activation"}, {"measurement": "Osteopontin (PON)", "setting": "mechanistic biomarkers", "value": "activation"}, {"measurement": "PDGF-BB", "setting": "mechanistic biomarkers", "value": "activation"}, {"measurement": "Stat-3", "setting": "mechanistic biomarkers", "value": "increase"}, {"measurement": "TGF-alpha", "setting": "mechanistic biomarkers", "value": "activation"}, {"measurement": "TNF-α", "setting": "mechanistic biomarkers", "value": "activated"}, {"measurement": "TRAIL & TRAILR2", "setting": "mechanistic biomarkers", "value": "activation"}, {"measurement": "VEGF, VEGF-A and VEGFR2 expression", "setting": "mechanistic biomarkers", "value": "stimulated"}, {"measurement": "expression of EGF", "setting": "mechanistic biomarkers", "value": "inhibited"}, {"measurement": "expression of JNK", "setting": "mechanistic biomarkers", "value": "increased"}, {"measurement": "expression of Leptin", "setting": "mechanistic biomarkers", "value": "increased"}, {"measurement": "expression of c-kit", "setting": "mechanistic biomarkers", "value": "increased"}, {"measurement": "levels of HGF", "setting": "mechanistic biomarkers", "value": "increased"}, {"measurement": "levels of endoglin-1 expression", "setting": "mechanistic biomarkers", "value": "increased"}, {"measurement": "p53", "setting": "mechanistic biomarkers", "value": "inhibits"}]}]}
